Experimental data as given in patent publication US6635440, “Method of isolation of RNA-binding compounds” (European Molecular Biology Laboratory).

How the values were obtained:
U1A spliceosomal protein = U1A spliceosomal protein (UniProt P09012 P09012:2-282); experiment: cell_activity; GFP repression in yeast, galactose vs glucose; settings: tags: expressed from YCpU1A in S. cerevisiae RS453; hairpin
Text: (§1) YCpU1A, YCpIRP-1 and YCpCP were used for the galactose inducible expression of U1A, IRP-1 and MS2 coat protein, respectively. These plasmids contain a URA3 selection marker. The sequences and nomenclature of the GFP reporter plasmids are described in FIG. 3. Binding site insertions are represented by Capital letters. Differences between wild type and mutated binding sites are indicated by arrows.
(§2) This reduction specifically requires the presence of the wild type binding site and the cognate binding protein, and is not seen with either the mutant binding sites (FIG. 4c and f) or the non-cognate binding proteins (FIGS. 4a and d).

MS2 coat protein = MS2 coat protein (Bacteriophage MS2, UniProt P03612 P03612:2-130); experiment: as above; settings: tags: expressed from YCpCP in S. cerevisiae RS453; chain copies: 2; hairpin
Text: as §1, §2

Sequence of MS2 coat protein (P03612 2-130, one chain of several): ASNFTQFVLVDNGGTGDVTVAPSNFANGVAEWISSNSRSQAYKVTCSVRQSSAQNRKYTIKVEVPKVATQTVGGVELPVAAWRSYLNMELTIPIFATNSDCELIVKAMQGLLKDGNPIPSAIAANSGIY
Sequence of U1A spliceosomal protein (P09012 2-282, one chain of several): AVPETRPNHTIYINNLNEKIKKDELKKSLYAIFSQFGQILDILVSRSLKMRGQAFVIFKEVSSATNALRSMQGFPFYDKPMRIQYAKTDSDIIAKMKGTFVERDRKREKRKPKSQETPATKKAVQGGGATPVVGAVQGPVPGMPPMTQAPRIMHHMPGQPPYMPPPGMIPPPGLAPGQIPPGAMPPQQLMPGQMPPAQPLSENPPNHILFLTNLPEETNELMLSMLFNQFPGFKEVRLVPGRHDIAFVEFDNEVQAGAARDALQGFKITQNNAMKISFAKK

Binder	activity (U1A spliceosomal protein)	activity (MS2 coat protein)
U1Awt (U1 snRNA loop 2) GFP 5'UTR (ssRNA) RNA: AAUUAUCUACUUAAGCGAUUGCACUCCCGCUUAAGAACACAAAACUCGAGAACAUAUUUUUAAUAUUAUG	~40 % repression	–
MSC GFP 5'UTR (ssRNA) RNA: AAUUAUCUACUUAAGGACCAUCAGGCCUUAAGAACACAAAACUCGAGAACAUAUUUUUAAUAUUAUG	–	~70 % repression
MSA GFP 5'UTR (ssRNA) RNA: AAUUAUCUACUUAAGGACCAUAAGGCCUUAAGAACACAAAACUCGAGAACAUAUUUUUAAUAUUAUG	–	~50 % repression
